What was measured:
AncSZ = test: phosphorylation enrichment, bacterial display (enrichment ratio); higher = better substrate or ligand; peptides without Tyr show the background
EPHB1 = EPHB1 (UniProt P54762); test: as above
EPHB2 = EPHB2 (UniProt P29323); test: as above
FGFR1 = FGFR1 (UniProt P11362); test: as above
FGFR3 = FGFR3 (UniProt P22607); test: as above
Fer (mouse) = test: as above
Fes = Fes (UniProt P07332); test: as above
Fyn = Fyn (UniProt P06241); test: as above
Hck = Hck (UniProt P08631); test: as above
Jak2 = Jak2 (UniProt O60674); test: as above
MERTK = MERTK (UniProt Q12866); test: as above
c-Abl (mouse) = test: as above
c-Src = test: as above
Grb2 SH2 = Grb2 SH2 (UniProt P62993); test: SH2 binding enrichment of the phosphorylated peptide, bacterial display (enrichment ratio); higher = better substrate or ligand; peptides without Tyr show the background
SHP2-C SH2 = test: as above
c-Src SH2 = test: as above
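Throughout, for SH2 binding enrichment of the phosphorylated peptide, bacterial display: peptide library displayed on the E. coli surface as eCPX fusions, selected cells deep-sequenced, score is each peptide's frequency after selection divided by its frequency in the input.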
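Throughout, for phosphorylation enrichment, bacterial display: 11-residue human phosphosite peptides and single-mutation variants displayed on the E. coli surface, counted by deep sequencing, each peptide's frequency after selection divided by its frequency in the unselected input library; frequency after pTyr selection over input frequency; kinase dosed for 20-30% of maximal phosphorylation in three min.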

Sequence of FGFR3 (P22607 whole entry, looked up): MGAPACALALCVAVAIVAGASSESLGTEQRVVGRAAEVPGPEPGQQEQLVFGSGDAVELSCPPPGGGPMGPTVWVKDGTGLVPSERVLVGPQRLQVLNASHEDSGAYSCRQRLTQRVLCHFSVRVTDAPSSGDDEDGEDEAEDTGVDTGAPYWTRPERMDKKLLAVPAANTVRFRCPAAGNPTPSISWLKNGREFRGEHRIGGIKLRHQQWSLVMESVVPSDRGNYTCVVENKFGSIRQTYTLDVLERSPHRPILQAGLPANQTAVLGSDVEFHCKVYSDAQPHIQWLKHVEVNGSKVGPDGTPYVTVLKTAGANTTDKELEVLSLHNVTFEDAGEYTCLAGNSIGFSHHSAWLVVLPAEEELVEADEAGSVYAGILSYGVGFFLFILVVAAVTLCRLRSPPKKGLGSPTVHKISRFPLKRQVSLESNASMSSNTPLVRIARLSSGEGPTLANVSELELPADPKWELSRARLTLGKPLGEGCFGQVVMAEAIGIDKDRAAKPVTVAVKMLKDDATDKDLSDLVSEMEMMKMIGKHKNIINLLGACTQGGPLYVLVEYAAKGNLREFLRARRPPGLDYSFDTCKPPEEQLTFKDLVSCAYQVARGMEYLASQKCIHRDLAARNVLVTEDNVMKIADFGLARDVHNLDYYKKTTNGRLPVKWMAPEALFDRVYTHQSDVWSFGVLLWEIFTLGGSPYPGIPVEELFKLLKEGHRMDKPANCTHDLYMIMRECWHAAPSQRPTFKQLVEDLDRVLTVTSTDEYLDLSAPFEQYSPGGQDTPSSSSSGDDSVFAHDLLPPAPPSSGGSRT
Sequence of EPHB2 (P29323 whole entry, looked up): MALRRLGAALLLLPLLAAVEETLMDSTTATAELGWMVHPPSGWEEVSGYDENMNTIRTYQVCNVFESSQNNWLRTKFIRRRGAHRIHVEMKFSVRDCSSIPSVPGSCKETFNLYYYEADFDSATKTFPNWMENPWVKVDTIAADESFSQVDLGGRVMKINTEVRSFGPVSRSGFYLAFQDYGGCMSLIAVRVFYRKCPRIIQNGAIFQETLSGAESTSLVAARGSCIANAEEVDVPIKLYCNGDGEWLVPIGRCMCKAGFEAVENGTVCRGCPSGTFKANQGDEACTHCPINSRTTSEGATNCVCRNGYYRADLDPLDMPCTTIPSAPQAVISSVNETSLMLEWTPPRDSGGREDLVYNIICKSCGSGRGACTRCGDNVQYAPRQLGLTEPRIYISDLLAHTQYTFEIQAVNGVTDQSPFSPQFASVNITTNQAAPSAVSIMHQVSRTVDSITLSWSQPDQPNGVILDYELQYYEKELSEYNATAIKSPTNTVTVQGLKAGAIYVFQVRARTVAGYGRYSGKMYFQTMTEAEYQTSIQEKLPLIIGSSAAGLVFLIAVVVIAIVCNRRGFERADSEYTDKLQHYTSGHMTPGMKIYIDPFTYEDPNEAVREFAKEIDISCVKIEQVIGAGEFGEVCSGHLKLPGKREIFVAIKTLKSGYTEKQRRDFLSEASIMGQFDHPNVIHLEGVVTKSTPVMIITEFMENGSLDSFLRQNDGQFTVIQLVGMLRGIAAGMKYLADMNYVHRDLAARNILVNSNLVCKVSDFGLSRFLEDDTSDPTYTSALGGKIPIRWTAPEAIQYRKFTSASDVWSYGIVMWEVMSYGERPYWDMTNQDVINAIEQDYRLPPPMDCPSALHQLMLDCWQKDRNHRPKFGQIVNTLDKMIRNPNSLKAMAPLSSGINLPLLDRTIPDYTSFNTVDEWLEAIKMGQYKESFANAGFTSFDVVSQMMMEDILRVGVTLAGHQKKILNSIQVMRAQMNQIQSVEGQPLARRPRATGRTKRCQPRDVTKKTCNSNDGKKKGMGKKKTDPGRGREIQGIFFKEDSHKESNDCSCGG
Sequence of Hck (P08631 whole entry, looked up): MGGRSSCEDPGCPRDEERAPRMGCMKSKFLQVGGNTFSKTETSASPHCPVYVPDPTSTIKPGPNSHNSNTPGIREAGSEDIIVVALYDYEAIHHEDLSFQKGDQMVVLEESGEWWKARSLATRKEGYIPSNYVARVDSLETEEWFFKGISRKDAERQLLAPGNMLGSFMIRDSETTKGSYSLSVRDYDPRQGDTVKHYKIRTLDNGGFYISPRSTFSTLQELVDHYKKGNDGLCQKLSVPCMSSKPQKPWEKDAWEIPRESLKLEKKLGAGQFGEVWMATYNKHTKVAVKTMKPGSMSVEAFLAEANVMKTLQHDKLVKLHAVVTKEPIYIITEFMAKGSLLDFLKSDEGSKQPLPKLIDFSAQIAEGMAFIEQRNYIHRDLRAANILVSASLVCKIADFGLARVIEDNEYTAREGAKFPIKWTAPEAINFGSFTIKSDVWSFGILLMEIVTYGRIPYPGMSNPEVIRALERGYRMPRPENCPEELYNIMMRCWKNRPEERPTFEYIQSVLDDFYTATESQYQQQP
Sequence of Jak2 (O60674 whole entry, looked up): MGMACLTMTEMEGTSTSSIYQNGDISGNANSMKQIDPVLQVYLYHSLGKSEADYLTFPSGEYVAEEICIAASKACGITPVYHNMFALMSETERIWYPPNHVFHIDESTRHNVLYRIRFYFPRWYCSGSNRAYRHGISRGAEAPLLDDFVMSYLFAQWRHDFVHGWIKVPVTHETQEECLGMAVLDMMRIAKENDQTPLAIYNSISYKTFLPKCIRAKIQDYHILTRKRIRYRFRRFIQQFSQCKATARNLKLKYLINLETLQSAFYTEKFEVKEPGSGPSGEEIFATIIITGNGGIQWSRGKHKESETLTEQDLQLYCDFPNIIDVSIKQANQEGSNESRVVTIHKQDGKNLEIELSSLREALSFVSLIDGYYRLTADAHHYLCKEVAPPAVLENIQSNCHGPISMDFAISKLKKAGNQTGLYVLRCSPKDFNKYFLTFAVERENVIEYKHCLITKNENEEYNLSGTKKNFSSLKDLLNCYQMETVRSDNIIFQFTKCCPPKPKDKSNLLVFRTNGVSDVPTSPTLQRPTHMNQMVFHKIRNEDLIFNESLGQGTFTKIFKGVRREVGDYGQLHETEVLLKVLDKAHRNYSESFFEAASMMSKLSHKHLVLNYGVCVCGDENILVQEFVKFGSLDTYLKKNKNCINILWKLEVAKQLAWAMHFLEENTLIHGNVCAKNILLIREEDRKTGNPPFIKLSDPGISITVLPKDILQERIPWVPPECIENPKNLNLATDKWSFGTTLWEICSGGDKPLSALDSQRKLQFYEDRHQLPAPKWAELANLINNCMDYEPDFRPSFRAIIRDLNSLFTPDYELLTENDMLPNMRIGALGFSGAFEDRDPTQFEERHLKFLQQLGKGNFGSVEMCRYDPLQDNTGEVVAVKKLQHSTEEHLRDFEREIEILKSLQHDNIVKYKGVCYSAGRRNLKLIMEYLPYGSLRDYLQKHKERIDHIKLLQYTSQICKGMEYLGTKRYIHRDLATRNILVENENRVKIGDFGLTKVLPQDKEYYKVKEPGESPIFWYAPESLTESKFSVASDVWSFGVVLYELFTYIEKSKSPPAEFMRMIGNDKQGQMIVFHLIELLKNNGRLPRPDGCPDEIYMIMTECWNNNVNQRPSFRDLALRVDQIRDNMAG
Sequence of FGFR1 (P11362 whole entry, looked up): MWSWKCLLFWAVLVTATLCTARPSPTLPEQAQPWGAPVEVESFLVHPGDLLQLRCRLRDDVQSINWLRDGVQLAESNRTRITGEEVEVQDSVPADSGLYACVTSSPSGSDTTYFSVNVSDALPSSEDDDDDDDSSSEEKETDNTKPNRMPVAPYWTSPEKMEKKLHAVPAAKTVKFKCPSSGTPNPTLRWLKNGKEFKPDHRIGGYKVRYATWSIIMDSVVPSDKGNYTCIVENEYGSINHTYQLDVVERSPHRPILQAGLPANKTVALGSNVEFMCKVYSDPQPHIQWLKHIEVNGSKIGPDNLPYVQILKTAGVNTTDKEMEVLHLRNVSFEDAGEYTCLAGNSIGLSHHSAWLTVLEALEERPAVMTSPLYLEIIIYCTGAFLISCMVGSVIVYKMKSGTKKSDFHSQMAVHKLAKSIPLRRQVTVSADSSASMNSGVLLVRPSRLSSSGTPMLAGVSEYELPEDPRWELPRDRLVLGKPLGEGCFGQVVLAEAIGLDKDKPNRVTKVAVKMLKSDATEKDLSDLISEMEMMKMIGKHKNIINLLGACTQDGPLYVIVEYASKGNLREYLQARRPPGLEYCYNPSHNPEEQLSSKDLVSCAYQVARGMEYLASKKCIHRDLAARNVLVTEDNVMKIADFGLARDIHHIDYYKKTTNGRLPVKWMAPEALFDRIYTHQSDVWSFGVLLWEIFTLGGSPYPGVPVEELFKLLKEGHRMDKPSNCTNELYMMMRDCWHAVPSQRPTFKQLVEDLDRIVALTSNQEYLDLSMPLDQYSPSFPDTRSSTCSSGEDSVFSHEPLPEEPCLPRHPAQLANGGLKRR
Sequence of Fyn (P06241 whole entry, looked up): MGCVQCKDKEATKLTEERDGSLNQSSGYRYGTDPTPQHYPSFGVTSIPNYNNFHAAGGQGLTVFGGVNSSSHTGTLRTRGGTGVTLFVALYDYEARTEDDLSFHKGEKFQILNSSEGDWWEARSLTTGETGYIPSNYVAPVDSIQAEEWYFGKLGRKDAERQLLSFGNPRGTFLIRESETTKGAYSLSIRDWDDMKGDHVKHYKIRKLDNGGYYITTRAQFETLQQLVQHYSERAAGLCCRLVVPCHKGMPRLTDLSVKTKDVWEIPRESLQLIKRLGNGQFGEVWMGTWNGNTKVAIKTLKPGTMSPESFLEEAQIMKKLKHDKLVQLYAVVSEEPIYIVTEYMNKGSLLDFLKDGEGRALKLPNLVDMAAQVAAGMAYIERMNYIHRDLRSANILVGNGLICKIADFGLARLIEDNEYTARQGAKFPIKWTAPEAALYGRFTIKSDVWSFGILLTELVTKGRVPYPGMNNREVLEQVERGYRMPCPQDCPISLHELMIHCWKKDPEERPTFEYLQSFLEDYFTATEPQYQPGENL

| Sequence | SH2 binding enrichment (Grb2 SH2) | SH2 binding enrichment (SHP2-C SH2) | SH2 binding enrichment (c-Src SH2) | phosphorylation enrichment (AncSZ) | phosphorylation enrichment (EPHB1) | phosphorylation enrichment (EPHB2) | phosphorylation enrichment (FGFR1) | phosphorylation enrichment (FGFR3) | phosphorylation enrichment (Fer (mouse)) | phosphorylation enrichment (Fes) | phosphorylation enrichment (Fyn) | phosphorylation enrichment (Hck) | phosphorylation enrichment (Jak2) | phosphorylation enrichment (MERTK) | phosphorylation enrichment (c-Abl (mouse)) | phosphorylation enrichment (c-Src) |
| --- | --- | --- | --- | --- | --- | --- | --- | --- | --- | --- | --- | --- | --- | --- | --- | --- |
| DTFDPYLDVAL [USP36_Y268_YF] | 0.707 | 0.953 | 0.414 | 1.18 | 0.641 | 0.622 | 0.658 | 0.857 | 1.52 | 1.24 | 0.704 | 0.701 | 1.25 | 0.557 | 0.833 | 0.712 |
| GEVLVYVEDPA [FLNA_Y319] | 0.706 | 0.553 | 0.45 | 1.33 | 0.798 | 0.728 | 0.694 | 0.81 | 0.85 | 1.41 | 0.529 | 0.589 | 1.34 | 0.478 | 0.917 | 0.636 |
| SSRKEYFIGGG [GYPC_Y126] | 0.703 | 0.677 | 0.63 | 0.482 | 0.423 | 0.317 | 0.532 | 0.478 | 0.431 | 0.673 | 0.603 | 0.486 | 0.519 | 0.309 | 0.429 | 0.496 |
| ASKEPYYVHCI [MYO1D_Y585_R588H] | 0.924 | 0.889 | 0.685 | 0.953 | 1.96 | 1.21 | 1.89 | 1.36 | 0.506 | 0.974 | 0.482 | 0.554 | 0.755 | 0.636 | 0.627 | 0.576 |
| SPDMLYQFLKQ [RPAP3_Y567_YF] | 0.782 | 0.683 | 0.499 | 0.997 | 0.943 | 0.749 | 1.7 | 1.35 | 7.72 | 0.971 | 0.792 | 7.82 | 0.679 | 4.98 | 0.695 | 1.77 |
| EVDETYVPKEF [ALB_Y521] | 0.881 | 0.651 | 0.498 | 1.22 | 0.613 | 0.64 | 0.589 | 0.791 | 0.605 | 1.58 | 0.517 | 0.668 | 1.19 | 0.491 | 0.889 | 0.595 |
| LDTSQYFRLFN [CPT2_Y217_M214T] | 0.96 | 1.98 | 0.472 | 0.824 | 0.673 | 0.522 | 1.47 | 1.36 | 0.498 | 0.784 | 0.413 | 0.61 | 4.85 | 0.532 | 0.617 | 0.535 |
| KHTLSYVDVGT [SDHA_Y629] | 0.817 | 0.967 | 0.759 | 0.703 | 0.573 | 0.42 | 0.724 | 0.589 | 0.392 | 0.685 | 0.348 | 0.431 | 0.552 | 0.295 | 0.53 | 0.283 |
| KNSFKYYMSDD [ATRX_Y203_C200S] | 0.848 | 0.661 | 0.708 | 0.92 | 0.507 | 0.531 | 0.486 | 0.604 | 0.405 | 1.02 | 0.468 | 0.477 | 0.947 | 0.479 | 0.671 | 0.44 |
| KNNSIYVVANI [VNN1_Y134] | 1.08 | 1.05 | 0.671 | 0.982 | 0.74 | 0.761 | 0.701 | 0.821 | 0.727 | 1.14 | 0.765 | 0.888 | 1.04 | 0.885 | 0.8 | 0.705 |
| ADLLVYIKALN [HPRT1_Y81_D80V] | 0.949 | 0.681 | 0.511 | 1.11 | 0.644 | 0.628 | 0.512 | 0.935 | 0.511 | 1.48 | 0.455 | 0.657 | 1.23 | 0.349 | 0.939 | 0.471 |
| GNEEAYGRSHI [FAM171B_Y522] | 0.796 | 0.801 | 0.444 | 0.825 | 0.448 | 0.438 | 0.378 | 0.575 | 0.456 | 0.823 | 0.425 | 0.471 | 0.905 | 0.455 | 0.706 | 0.471 |
| QKTGDYYDLYG [PTPN11_Y62_N58K] | 0.899 | 1.04 | 1.38 | 2.31 | 11 | 6.98 | 20.8 | 16.2 | 0.586 | 1.33 | 3.77 | 4.6 | 2.24 | 3.24 | 1.21 | 3.77 |
| KLIETYSSKNF [PLP1_Y50_F51S_YF] | 0.713 | 0.472 | 0.422 | 0.654 | 0.769 | 0.618 | 0.446 | 0.46 | 0.388 | 0.996 | 0.504 | 0.519 | 0.59 | 0.401 | 0.588 | 0.451 |
| INITIYGKTFC [EFHC1_Y177_R182C] | 0.881 | 0.737 | 0.538 | 1.22 | 0.656 | 0.684 | 0.581 | 0.909 | 0.617 | 1.48 | 0.532 | 0.505 | 1.38 | 0.548 | 0.982 | 0.597 |
| HGAKVYIDPFT [EPHB4_Y590_T587A] | 0.712 | 0.668 | 0.592 | 0.986 | 1.08 | 0.975 | 1.46 | 0.912 | 0.715 | 1.04 | 0.792 | 0.792 | 0.761 | 0.535 | 0.831 | 0.713 |
| KRISCYEASFQ [PFKFB3_Y194_YF] | 0.64 | 0.53 | 0.502 | 0.973 | 0.58 | 0.536 | 0.523 | 0.85 | 0.593 | 1.11 | 0.452 | 0.49 | 1.06 | 0.527 | 0.88 | 0.568 |
| TEQDPYNSIVR [MMUT_Y364_N366S] | 0.952 | 0.711 | 1.48 | 1.03 | 0.496 | 0.616 | 0.697 | 0.665 | 0.488 | 1.01 | 0.494 | 0.551 | 0.889 | 0.4 | 0.661 | 0.593 |
| ISITPYPAILH [IFT80_Y588] | 0.616 | 0.547 | 0.385 | 1.2 | 0.578 | 0.484 | 0.433 | 0.676 | 0.37 | 1.24 | 0.409 | 0.465 | 1.2 | 0.36 | 0.865 | 0.414 |
| AVAFLYYKSIG [ADGRL4_Y301_V300L] | 0.722 | 0.559 | 0.461 | 1.09 | 0.555 | 0.54 | 0.566 | 0.796 | 0.46 | 1.42 | 0.417 | 0.518 | 1.24 | 0.469 | 1.07 | 0.459 |
| DRLASYLDKAR [KRT14_Y129_V133A] | 0.874 | 0.59 | 0.419 | 0.586 | 0.297 | 0.324 | 0.37 | 0.45 | 0.403 | 0.634 | 0.373 | 0.342 | 0.627 | 0.378 | 0.914 | 0.349 |

The next lines start with results.

| SH2 binding enrichment (Grb2 SH2) | SH2 binding enrichment (SHP2-C SH2) | SH2 binding enrichment (c-Src SH2) | Sequence | phosphorylation enrichment (AncSZ) | phosphorylation enrichment (EPHB1) | phosphorylation enrichment (EPHB2) | phosphorylation enrichment (FGFR1) | phosphorylation enrichment (FGFR3) | phosphorylation enrichment (Fer (mouse)) | phosphorylation enrichment (Fes) | phosphorylation enrichment (Fyn) | phosphorylation enrichment (Hck) | phosphorylation enrichment (Jak2) | phosphorylation enrichment (MERTK) | phosphorylation enrichment (c-Abl (mouse)) | phosphorylation enrichment (c-Src) |
| --- | --- | --- | --- | --- | --- | --- | --- | --- | --- | --- | --- | --- | --- | --- | --- | --- |
| 0.752 | 0.8 | 0.579 | TESNNYIYTTL [FAM83B_Y637_K640T] | 1.03 | 2.3 | 1.15 | 2.74 | 1.92 | 2.64 | 0.898 | 8.53 | 7.3 | 0.774 | 5.09 | 0.692 | 7.09 |
| 0.749 | 0.521 | 0.51 | EVEPTYVVLFD [ERCC4_Y577_R576T_YF] | 1.51 | 11.1 | 14.1 | 5.46 | 3.65 | 1.08 | 1.21 | 6.46 | 3.99 | 1.26 | 3.5 | 1.22 | 5.25 |
| 1.06 | 1.01 | 0.582 | LSNPAYRLLLA [DDR1_Y513] | 1.27 | 0.945 | 1.1 | 1.17 | 1.19 | 0.981 | 1.15 | 0.954 | 1.14 | 1.99 | 0.568 | 0.917 | 1.21 |
| 0.853 | 0.691 | 0.358 | INASGYRVGPA [ACSM1_Y477_I479V] | 0.652 | 0.564 | 0.485 | 0.595 | 0.629 | 0.563 | 0.901 | 0.411 | 0.643 | 0.523 | 0.49 | 0.615 | 0.51 |
| 0.935 | 0.693 | 1.26 | KIKGWYEKCEP [KRT26_Y119] | 0.996 | 0.594 | 0.573 | 0.515 | 0.779 | 0.541 | 1.21 | 0.442 | 0.527 | 1.07 | 0.446 | 0.786 | 0.47 |
| 0.786 | 0.776 | 0.618 | REVKAYGAGLL [TH_Y419_G414R] | 0.559 | 0.487 | 0.405 | 0.411 | 0.817 | 0.853 | 0.649 | 0.532 | 0.419 | 0.53 | 0.411 | 0.55 | 0.363 |
| 0.81 | 0.945 | 1.95 | NACGLYHKMNG [GATA5_Y216] | 0.795 | 0.508 | 0.447 | 0.581 | 0.567 | 0.673 | 1.03 | 0.371 | 0.533 | 0.798 | 0.624 | 0.525 | 0.523 |
| 0.941 | 0.663 | 0.502 | EFFENYIEELK [PARP4_Y218_F215Y_YF] | 1.3 | 0.617 | 0.669 | 0.488 | 0.744 | 0.532 | 1.35 | 0.421 | 0.533 | 1.41 | 0.425 | 0.869 | 0.501 |
| 0.764 | 0.824 | 0.701 | SSFDTYHLSRE [KIR3DL2_Y253_I252T_YF] | 0.756 | 0.528 | 0.616 | 0.615 | 0.595 | 0.539 | 0.842 | 4.75 | 3.51 | 0.7 | 0.613 | 0.613 | 3.31 |
| 0.714 | 0.406 | 0.422 | RMSSSYPTGLA [ADM_Y52] | 0.525 | 0.37 | 0.447 | 0.562 | 0.613 | 0.502 | 0.542 | 0.525 | 0.509 | 0.473 | 0.433 | 0.518 | 0.334 |
| 1.03 | 0.807 | 0.623 | FEPDAYDDLDQ [ELP5_Y302_YF] | 1.29 | 0.624 | 0.684 | 0.573 | 0.704 | 0.6 | 1.3 | 0.574 | 0.571 | 1.27 | 0.57 | 0.731 | 0.41 |
| 0.64 | 0.544 | 0.381 | DGTVHYVDEKG [IFT140_Y216] | 1.02 | 0.666 | 0.682 | 0.592 | 0.83 | 0.593 | 1.23 | 0.671 | 0.586 | 0.832 | 0.443 | 0.653 | 0.376 |

From the supplement of paper PMC10065799, “High-throughput profiling of sequence recognition by tyrosine kinases and SH2 domains using bacterial peptide display” (eLife, 2023)
